pKd: −log10 of the molar value.
Columns and labels:
[1] = biological target: OppA-ev2 (evolved OppA variant with seven mutations) (E. coli (K12)) (UniProt P23843); experiment: MST
[2] = biological target: wt-OppA, periplasmic binding protein of the oligopeptide permease (Opp) transporter (E. coli (K12)) (UniProt P23843); experiment: MST

Row | Substance | pKd [1] | pKd [2]
1 | SisoK, isopeptide-linked dipeptide | 3.52 | 3.52
2 | G-SisoK, isopeptide-linked tripeptide | 4.43 | 4.30
3 | linear GSK tripeptide | 3.56 | 4.15

Source: paper doi:10.1101/2025.03.06.641855
